Drawing on patent US20140072613A1, “Compositions and Methods for Treating Cutaneous Scarring” (priority 2012, published 2014), this text covers % activity, 100 µM for one substance.

Experiment in all cases: cell-based or functional assay
Experiment [1] has as its target T1, MST2(h) (human) (UniProt Q13188).
T1 sequence (looked up): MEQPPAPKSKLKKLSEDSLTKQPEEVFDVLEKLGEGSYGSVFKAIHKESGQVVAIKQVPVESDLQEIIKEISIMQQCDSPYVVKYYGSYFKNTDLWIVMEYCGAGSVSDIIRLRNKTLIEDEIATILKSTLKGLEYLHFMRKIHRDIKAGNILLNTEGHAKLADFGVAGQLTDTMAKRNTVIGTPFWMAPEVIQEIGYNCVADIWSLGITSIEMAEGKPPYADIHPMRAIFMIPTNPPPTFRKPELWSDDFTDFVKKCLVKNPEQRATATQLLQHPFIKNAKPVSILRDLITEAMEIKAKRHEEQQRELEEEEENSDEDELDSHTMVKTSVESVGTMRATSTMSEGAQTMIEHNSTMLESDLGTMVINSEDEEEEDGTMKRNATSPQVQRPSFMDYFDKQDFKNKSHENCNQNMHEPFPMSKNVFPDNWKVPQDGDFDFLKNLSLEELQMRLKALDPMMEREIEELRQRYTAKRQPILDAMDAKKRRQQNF

Experiment [2] addresses DMPK(h) (human) (UniProt Q09013).
Experiment [3] concerns the target Rsk3(h) (human) (UniProt Q15349).
Experiment [4] has as its target LOK(h) (human) (UniProt O94804).
Experiment [5] has as its target LIMK1(h) (human) (UniProt P53667).
Experiment [6] addresses FGFR4(h) (human) (UniProt P22455).
The target of experiment [7] is SAPK2a(h) (human) (UniProt Q16539).
Experiment [8] has as its target CDK5/p25(h) (human) (UniProt Q00535).
Experiment [9] addresses T2, Tec(h)activated (human) (UniProt P42680).
T2 sequence (looked up): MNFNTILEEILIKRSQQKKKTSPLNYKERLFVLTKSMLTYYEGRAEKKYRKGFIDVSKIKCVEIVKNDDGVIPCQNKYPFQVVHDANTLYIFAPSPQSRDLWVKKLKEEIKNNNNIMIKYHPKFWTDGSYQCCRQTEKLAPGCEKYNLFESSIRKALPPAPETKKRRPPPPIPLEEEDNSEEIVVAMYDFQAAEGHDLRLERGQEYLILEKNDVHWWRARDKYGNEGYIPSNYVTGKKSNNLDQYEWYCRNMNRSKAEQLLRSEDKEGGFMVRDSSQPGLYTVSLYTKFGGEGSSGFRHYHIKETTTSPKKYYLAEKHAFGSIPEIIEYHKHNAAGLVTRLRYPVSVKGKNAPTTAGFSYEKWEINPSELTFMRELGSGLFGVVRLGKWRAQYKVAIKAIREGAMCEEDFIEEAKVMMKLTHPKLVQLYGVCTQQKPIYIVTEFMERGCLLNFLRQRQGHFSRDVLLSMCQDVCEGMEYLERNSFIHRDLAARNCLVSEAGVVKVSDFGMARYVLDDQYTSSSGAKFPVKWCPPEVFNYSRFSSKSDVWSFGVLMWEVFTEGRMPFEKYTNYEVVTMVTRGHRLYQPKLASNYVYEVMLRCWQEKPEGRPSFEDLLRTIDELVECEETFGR

The target in experiment [10] is T3, Ret(h) (human) (UniProt P07949).
T3 sequence (looked up): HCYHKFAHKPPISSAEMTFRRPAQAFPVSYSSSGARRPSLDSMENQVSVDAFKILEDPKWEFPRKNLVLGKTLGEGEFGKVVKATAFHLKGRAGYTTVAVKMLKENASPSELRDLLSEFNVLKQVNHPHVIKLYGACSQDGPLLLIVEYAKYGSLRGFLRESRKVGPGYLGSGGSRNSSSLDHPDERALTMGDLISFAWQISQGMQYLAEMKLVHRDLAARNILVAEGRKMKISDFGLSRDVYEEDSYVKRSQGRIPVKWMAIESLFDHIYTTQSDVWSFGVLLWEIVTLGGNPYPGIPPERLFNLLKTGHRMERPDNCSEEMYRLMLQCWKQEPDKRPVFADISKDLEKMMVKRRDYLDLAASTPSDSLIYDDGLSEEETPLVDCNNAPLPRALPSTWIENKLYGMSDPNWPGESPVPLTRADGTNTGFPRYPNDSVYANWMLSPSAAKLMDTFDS

The target of experiment [11] is Abl(H8396P)(h) (human) (UniProt P00519).
Experiment [12] addresses Plk3(h) (human) (UniProt Q9H4B4).
Experiment [13] addresses Src(T341M)(h) (human) (UniProt P12931).
Experiment [14] deals with PDGFRα(V561D)(h) (human) (UniProt P16234).
Experiment [15] concerns the target T4, SGK3(h) (human) (UniProt Q96BR1).
T4 sequence (looked up): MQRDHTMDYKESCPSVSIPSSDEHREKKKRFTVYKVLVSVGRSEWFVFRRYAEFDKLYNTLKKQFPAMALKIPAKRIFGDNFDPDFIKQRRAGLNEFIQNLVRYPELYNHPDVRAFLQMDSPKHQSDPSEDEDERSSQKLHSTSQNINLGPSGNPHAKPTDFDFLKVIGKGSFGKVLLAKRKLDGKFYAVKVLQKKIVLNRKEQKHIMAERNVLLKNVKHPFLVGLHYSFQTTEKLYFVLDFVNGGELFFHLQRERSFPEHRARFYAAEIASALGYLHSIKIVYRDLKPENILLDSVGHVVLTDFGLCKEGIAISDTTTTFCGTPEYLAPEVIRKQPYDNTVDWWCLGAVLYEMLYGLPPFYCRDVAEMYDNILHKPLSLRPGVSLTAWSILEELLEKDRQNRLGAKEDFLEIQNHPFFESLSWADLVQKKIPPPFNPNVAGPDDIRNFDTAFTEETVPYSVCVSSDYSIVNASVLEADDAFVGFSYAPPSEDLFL

Sequence of PDGFRα(V561D)(h) (human) (P16234 550-1089 V561D limits assumed): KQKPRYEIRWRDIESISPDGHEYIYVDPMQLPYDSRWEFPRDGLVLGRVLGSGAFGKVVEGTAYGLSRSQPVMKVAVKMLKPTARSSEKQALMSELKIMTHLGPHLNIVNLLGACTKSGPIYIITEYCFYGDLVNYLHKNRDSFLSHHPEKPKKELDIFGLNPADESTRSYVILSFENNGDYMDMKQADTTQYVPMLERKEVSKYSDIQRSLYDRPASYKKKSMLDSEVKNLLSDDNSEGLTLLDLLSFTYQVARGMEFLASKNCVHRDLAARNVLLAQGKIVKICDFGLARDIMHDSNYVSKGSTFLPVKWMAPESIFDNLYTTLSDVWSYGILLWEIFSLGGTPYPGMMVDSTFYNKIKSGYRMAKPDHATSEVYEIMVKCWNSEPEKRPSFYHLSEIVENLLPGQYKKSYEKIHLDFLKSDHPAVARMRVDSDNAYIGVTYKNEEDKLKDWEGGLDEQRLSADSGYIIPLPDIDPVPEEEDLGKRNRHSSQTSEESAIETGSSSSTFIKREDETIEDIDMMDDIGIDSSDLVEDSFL
Sequence of LIMK1(h) (human) (P53667 285-638 limits assumed): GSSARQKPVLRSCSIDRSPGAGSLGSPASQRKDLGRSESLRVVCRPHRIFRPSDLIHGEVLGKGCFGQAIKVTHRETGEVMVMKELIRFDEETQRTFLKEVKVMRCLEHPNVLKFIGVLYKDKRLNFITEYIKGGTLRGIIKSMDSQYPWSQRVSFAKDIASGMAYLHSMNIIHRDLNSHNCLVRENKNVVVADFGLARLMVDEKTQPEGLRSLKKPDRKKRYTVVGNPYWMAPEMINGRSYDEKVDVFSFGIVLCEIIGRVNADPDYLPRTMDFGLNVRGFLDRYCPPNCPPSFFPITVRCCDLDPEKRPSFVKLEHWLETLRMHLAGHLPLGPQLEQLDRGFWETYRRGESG
Sequence of DMPK(h) (human) (Q09013 whole entry): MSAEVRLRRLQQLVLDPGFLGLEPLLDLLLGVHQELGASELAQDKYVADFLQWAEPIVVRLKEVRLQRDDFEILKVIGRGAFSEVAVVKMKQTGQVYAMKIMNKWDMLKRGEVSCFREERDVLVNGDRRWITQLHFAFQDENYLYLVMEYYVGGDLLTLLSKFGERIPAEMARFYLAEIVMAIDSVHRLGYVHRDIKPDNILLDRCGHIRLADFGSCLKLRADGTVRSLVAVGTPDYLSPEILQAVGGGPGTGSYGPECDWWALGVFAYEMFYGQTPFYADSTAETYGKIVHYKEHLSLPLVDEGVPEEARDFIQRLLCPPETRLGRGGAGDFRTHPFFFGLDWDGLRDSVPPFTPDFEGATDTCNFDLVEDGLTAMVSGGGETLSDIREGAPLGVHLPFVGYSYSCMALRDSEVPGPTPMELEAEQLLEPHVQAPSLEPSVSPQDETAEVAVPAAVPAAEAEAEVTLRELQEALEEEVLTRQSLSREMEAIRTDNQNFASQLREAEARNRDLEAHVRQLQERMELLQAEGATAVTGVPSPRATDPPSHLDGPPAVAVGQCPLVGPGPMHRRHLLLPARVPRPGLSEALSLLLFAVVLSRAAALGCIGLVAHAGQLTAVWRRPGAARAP
Sequence of Plk3(h) (human) (Q9H4B4 58-340 limits assumed): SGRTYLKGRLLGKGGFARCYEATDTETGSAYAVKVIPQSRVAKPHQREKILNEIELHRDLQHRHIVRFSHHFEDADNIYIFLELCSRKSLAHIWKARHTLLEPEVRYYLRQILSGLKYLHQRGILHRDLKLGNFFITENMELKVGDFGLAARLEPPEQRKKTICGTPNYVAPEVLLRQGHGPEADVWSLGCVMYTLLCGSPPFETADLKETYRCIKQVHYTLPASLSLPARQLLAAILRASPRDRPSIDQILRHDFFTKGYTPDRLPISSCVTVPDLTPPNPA
Sequence of LOK(h) (human) (O94804 1-348 limits assumed): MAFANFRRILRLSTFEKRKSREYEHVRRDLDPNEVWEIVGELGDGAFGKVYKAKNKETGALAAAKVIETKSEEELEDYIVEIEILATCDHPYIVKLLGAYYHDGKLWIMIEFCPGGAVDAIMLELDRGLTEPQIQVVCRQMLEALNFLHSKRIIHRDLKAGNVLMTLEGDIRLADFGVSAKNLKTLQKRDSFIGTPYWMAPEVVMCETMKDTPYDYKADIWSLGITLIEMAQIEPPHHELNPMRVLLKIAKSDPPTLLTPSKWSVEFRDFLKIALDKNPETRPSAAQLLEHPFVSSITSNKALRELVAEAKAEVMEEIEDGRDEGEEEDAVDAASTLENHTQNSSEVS
Sequence of Abl(H8396P)(h) (human) (P00519 27-1130, stated change not applied): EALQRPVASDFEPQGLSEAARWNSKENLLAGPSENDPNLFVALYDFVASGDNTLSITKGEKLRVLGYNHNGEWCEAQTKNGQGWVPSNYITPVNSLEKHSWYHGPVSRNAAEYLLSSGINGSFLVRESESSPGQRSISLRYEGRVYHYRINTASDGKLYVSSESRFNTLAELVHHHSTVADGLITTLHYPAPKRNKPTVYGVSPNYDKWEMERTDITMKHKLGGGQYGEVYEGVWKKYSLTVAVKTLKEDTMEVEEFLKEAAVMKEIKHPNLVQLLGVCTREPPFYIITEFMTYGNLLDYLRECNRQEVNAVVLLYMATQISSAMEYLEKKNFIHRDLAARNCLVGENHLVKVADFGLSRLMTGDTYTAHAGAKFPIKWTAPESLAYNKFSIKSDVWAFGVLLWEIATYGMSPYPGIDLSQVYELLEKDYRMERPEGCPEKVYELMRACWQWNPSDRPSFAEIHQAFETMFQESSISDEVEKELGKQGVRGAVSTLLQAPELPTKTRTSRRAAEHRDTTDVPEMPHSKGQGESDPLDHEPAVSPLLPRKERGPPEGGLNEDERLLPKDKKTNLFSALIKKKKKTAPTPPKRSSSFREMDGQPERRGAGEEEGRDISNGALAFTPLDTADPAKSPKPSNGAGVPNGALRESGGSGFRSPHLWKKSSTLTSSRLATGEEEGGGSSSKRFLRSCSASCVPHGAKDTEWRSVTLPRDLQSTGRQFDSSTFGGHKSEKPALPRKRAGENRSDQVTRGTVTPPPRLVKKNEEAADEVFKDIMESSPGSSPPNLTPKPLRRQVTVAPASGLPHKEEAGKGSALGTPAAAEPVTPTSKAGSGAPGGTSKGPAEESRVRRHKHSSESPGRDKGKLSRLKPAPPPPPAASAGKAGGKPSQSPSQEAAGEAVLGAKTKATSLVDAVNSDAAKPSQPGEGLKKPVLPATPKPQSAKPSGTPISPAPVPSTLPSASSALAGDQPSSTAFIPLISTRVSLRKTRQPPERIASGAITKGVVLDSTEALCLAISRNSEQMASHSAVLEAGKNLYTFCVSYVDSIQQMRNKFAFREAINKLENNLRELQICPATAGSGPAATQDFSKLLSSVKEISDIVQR
Sequence of Rsk3(h) (human) (Q15349 whole entry): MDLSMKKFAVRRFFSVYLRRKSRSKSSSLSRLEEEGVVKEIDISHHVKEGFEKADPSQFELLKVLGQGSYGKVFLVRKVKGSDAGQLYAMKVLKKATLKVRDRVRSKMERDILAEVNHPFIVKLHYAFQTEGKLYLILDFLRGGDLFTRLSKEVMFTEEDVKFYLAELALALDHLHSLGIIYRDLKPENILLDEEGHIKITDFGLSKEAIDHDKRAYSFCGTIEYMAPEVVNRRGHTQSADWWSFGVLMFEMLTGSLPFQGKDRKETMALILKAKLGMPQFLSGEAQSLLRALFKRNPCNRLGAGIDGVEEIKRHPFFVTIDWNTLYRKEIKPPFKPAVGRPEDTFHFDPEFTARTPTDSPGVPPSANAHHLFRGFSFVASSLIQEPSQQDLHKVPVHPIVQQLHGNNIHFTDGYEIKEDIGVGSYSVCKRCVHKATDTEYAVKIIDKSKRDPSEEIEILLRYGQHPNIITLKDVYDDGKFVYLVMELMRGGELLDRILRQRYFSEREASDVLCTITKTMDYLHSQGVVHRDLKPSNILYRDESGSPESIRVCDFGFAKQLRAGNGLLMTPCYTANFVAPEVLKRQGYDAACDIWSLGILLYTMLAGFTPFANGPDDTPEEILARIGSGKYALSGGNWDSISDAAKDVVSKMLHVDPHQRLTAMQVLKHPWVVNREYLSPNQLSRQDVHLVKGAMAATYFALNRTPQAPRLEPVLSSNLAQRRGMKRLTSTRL
Sequence of SAPK2a(h) (human) (Q16539 whole entry): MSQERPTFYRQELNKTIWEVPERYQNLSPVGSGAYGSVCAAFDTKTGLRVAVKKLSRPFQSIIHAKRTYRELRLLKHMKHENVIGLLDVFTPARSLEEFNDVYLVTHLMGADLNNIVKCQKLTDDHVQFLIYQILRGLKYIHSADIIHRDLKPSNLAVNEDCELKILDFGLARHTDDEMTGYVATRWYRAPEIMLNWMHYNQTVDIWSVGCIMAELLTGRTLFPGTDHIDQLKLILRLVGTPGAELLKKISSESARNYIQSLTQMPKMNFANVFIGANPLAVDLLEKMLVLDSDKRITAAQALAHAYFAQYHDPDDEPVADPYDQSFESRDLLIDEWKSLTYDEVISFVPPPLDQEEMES
Sequence of FGFR4(h) (human) (P22455 460-802 limits assumed): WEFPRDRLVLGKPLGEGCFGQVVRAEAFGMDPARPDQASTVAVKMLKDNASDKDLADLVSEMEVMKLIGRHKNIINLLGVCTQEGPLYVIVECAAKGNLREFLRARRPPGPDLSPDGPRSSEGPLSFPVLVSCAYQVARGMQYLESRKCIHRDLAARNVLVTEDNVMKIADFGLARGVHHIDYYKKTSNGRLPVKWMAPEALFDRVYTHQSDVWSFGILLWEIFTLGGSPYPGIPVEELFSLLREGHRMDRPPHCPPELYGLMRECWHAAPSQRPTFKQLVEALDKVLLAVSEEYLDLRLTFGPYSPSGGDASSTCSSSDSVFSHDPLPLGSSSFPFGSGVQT

For MMI-0500 (peptide), the % activity, 100 µM in experiment [1] is 2%; in experiment [2], 12%; in [3] it was 23%; in experiment [4] it was 7%; in experiment [5], 87%; in experiment [6], 3%. Moreover, the % activity, 100 µM in experiment [7] was found to be 52%; in experiment [8], 66%; in [9], 33%; in experiment [10], 174%; in experiment [11], 51%; in [12], 122%. In addition, the % activity, 100 µM in experiment [13] was 59%; in [14] it was 146%; in experiment [15], -3%.
